Here are results for 1 molecule from US20210252159A1, “CONJUGATES OF CARTILAGE-HOMING PEPTIDES” (priority 2018, published 2021).

Series [1] can be described thus: Hydrolysis assay of peptide-drug conjugates in PBS (free Dex by LC/MS). Type of series: physicochemical. Particulars: 37° C. Here is the method:
(§1) In order to determine hydrolysis rates, conjugates can be diluted in PBS, rat plasma, or human plasma and incubated at 37 degrees. Samples can be taken at designated time-points (e.g., 1, 2, 3, 5, 10, 15, 20, 25, 30, 45, 60, or 90 minutes and/or hours after administration). Internal standards such as triamcinolone acetonide (TAA) can be added as an internal standard, and then active agent/TAA can be extracted using acetonitrile, for example. The samples can be dried down, reconstituted, and analyzed by LC/MS. Data can be normalized using Dex AUC/TAA AUC. Percent hydrolysis can be calculated using the average ratio for active agent AUC/TAA AUC at a time point of maximal drug release. A general method can include using a lyophilized, purified peptide-drug conjugates reconstituted in DMSO following production to generate stock solution at 20 mg/mL. Each conjugate stock can be brought to 0.25 mg/mL in each hydrolysis condition (1×DPBS, human plasma and rat plasma) in triplicate and rocked at 37° C. To quantitate free active agent, 100 μl of the hydrolyzed conjugate solution can be transferred into 1 mL acetonitrile at 4° C. at which time all plasma proteins and intact conjugates can precipitate. This can be performed repeatedly to generate a series of time points (0 hr, 0.5 hr, 1 hr, 2 hr, 4 hr, 6 hr, 8 hr, 24 hr, 32 hr). The acetonitrile solution can be spun at 17,000 g for 5 minutes, and the supernatant removed and added to a 96 well block. The pellet can then be resuspended in 500 μl acetonitrile and re-pelleted as before. The supernatant can be removed and added to the same well in the block. Samples can be prepared for analysis by drying under a nitrogen stream followed by reconstitution in 110 μl 45:55 ACN:Citrate 10 mM pH 5.5. To ensure optimal recovery the block can be shaken via plate shaker at 7,000 rpm for 5 minutes during the reconstitution step. Prior to LC/MS the samples can be transferred to a 96 well plate and centrifuged at 6,500 g for 15 minutes. Analysis can be performed on an Agilent 1260 Infinity series HPLC with inline 6120 single quad MS using acetonitrile, water (+0.1% TFA) gradient (shown below) on an InfinityLab Poroshell SB-C18 column. Quantification of free active agent (or drug) can be achieved through integration of active agent peaks of the TIC.
(§2) Lyophilized, purified peptide-drug conjugates were reconstituted in DMSO following production to generate stock solution at 20 mg/mL. Each conjugate stock was brought to 0.25 mg/mL in each hydrolysis condition (1×DPBS, human plasma and rat plasma) in triplicate and rocked at 37° C.
(§3) To quantitate free dexamethasone (Dex), 100 μl of the hydrolyzed conjugate solution was transferred into 1 mL acetonitrile at 4° C. at which time all plasma proteins and intact conjugates precipitated. This was performed repeatedly to generate a series of time points (0 hr, 0.5 hr, 1 hr, 2 hr, 4 hr, 6 hr, 8 hr, 24 hr, 32 hr). The corticosteroid triamcinolone acetonide (25 μl, 0.1 mg/mL in 45:55 ACN:Citrate 10 mM pH 5.5) was supplemented into the acetonitrile solution as an internal standard. The acetonitrile solution was spun at 17,000 g for 5 minutes, and the supernatant removed and added to a 96 well block. The pellet was resuspended in 500 μl acetonitrile and re-pelleted as before. The supernatant was removed and added to the same well in the block.
Samples were prepared for analysis by drying under a nitrogen stream followed by reconstitution in 110 μl 45:55 ACN:Citrate 10 mM pH 5.5. To ensure optimal recovery the block was shaken via plate shaker at 7,000 rpm for 5 minutes during the reconstitution step. Prior to LC/MS the samples were transferred to a 96 well plate and centrifuged at 6,500 g for 15 minutes. Analysis was performed on an Agilent 1260 Infinity series HPLC with inline 6120 single quad MS using a gradient of 0.1% TFA in acetonitrile (solvent B), and 0.1% TFA (aq) (solvent A) gradient (shown below) on an InfinityLab Poroshell SB-C18 column. […]

Series [2] can be described thus: Hydrolysis assay of peptide-drug conjugates in rat plasma (free drug by LC/MS). Format: in vitro ADME. To be noted: 37° C. Here is the method:
Peptide-drug conjugate peptide(SEQ ID NO: 105)-DMA-dCIC was incubated in rat plasma at 37° C. Samples were removed at regular intervals, processed by solvent extraction, and analyzed by LC/MS to quantitate free dCIC. 11 time-points were measured between 5 min and 56 hours with 3 replicates per time point. The assay was repeated two times.
as §1, §2, §3
Samples were prepared for analysis by drying under a nitrogen stream followed by reconstitution in 110 μl 45:55 ACN:Citrate 10 mM pH 5.5. To ensure optimal recovery the block was shaken via plate shaker at 7,000 rpm for 5 minutes during the reconstitution step. […]

Series [3] deals with CIA rats. The protocol:
Arthritis was induced in 9-week-old female Lewis rats (Envigo or Charles River Laboratories) by intradermal injection while anesthetized of 400 ug bovine type II collagen (Chondrex Inc, Redmond Wash.) in 2 adjacent 200 ul (1 mg/ml) doses on day 0. Collagen is prepared for injection by dissolving at 2 mg/ml in 0.01N glacial acetic acid in sterile water and rocking at 4° C. overnight then emulsifying in Freund's incomplete adjuvant (IFA, Sigma Aldrich). To emulsify, equal volumes of collagen solution and IFA are drawn up into separate syringes, which are joined by a 3-way stopcock. While on ice, the collagen and IFA are mixed by pressing between the two syringes rapidly for 10 minutes. Quality of the emulsification is tested after 10 minutes of mixing by dropping a small amount of mixture in water. A properly emulsified solution will remain as a discrete droplet and not disperse in the water. On day 7, rats are challenged with a second intradermal injection of 100 ug of collagen in 100 ul, 1 mg/ml, collagen in IFA solution prepared fresh. Body weight and ankle diameter measurements are recorded daily from day 7 through the end of the study. Ankle diameter was measure by a single researcher using a Fowler Digitrix 2 micrometer. Three measurements of each ankle were taken of the lateral dimension at the tarsus of lightly anesthetized rats. The reported ankle diameter measurement is the mean of the three measurements.
Arthritis was induced as described in four cohorts of 9-week-old female Lewis rats. Rats were randomly placed in treatment groups, balancing compound and dose groups across cohorts. […] Rats were dosed by tail vein injection on days 11 and 12 and euthanized on day 13 by CO2 asphyxiation. Immediately after cessation of respiratory movement, blood was collected by cardiac puncture, synovial fluid was collected from both knees, one hind limb was fixed in formalin and the alternate ankle was frozen on dry ice. Thymus, spleen, liver, and kidney weights were recorded.
CIA Response study design.
The aim of the study was to test the 4 conjugates with various linkers at two different doses in vivo in CIA rats to assess the following: ability to deliver sufficient dexamethasone to the joint to show functionality and potential therapeutic effect in the disease model.
CIA was induced in female Lewis rats (as described above, see EXAMPLE 21). Body weight and ankle joint diameters were measured on day 0 and then daily from day 7 until euthanasia. […] At euthanasia, synovial fluid was collected from both knees, one hind limb was fixed in formalin and the alternate ankle was frozen on dry ice. Thymus, spleen, liver, and kidney weights were recorded. Blood samples were submitted for CBC/Chemistry analysis, and the remaining plasma was frozen.

Series [4] in a line: Hydrolysis assay of peptide-drug conjugates in human plasma (free Dex by LC/MS). Type of series: in vitro ADME. Particulars: 37° C., release of free Dex, time points to 32 hr, read-out: Half-life (hours) as measured in the hydrolysis experiments (converted). Here is the method: as §1, with “To ensure optimal recovery the block can be shaken via plate shaker at 7,000 rpm for 5 minutes during the reconstitution step. Prior to LC/MS the samples can be transferred to a 96 well plate and centrifuged at 6,500 g for 15 minutes. Analysis can be performed on an Agilent 1260 Infinity series HPLC with inline 6120 single quad MS using acetonitrile, water (+0.1% TFA) gradient (shown below) on an InfinityLab Poroshell SB-C18 column.” left out, “TIC. […]” for “TIC.”
To quantitate free dexamethasone (Dex), 100 μl of the hydrolyzed conjugate solution was transferred into 1 mL acetonitrile at 4° C. at which time all plasma proteins and intact conjugates precipitated. […]

Positions of bridges follow the written chain, without caps; N, C: chain ends. Residues, ends and D or L forms follow the SMILES beside them. *: point of attachment. X3 = C[C@@H]1C[C@H]2[C@@H]3CCC4=CC(=O)C=C[C@]4(C)[C@@]3(F)[C@@H](O)C[C@]2(C)[C@@]1(O)C(=O)COC(=O)CCCC(=O)*

For `CC[C@H](C)[C@@H]1NC(=O)[C@@H]2CSSC[C@H](NC(=O)[C@H](CCCNC(=N)N)NC(=O)[C@@H](NC(=O)[C@H](CC(N)=O)NC(=O)[C@@H](NC(=O)[C@@H]3CCCN3C(=O)[C@@H](NC(=O)CNC(=O)[C@H](CO)NC(=O)CNC(=O)CCCC(=O)OCC(=O)[C@@]3(O)[C@H](C)C[C@H]4[C@@H]5CCC6=CC(=O)C=C[C@]6(C)[C@@]5(F)[C@@H](O)C[C@@]43C)C(C)C)[C@@H](C)CC)C(C)C)C(=O)N[C@@H](CCCNC(=N)N)C(=O)NCC(=O)N[C@@H](CO)C(=O)N[C@@H](CCCNC(=N)N)C(=O)N[C@@H](CC(=O)O)C(=O)N[C@H]3CSSC[C@H](NC(=O)[C@H](CCCNC(=N)N)NC(=O)[C@H](CO)NC(=O)[C@H](CC(N)=O)NC1=O)C(=O)N[C@@H](Cc1c[nH]cn1)C(=O)N[C@H](C(=O)N[C@H](C(=O)N1CCC[C@H]1C(=O)O)[C@@H](C)O)CSSC[C@H](NC(=O)[C@@H]1CCCN1C(=O)[C@H](CC(=O)O)NC(=O)[C@H](CC(C)C)NC3=O)C(=O)N[C@@H](CCCNC(=N)N)C(=O)N[C@@H](CCCNC(=N)N)C(=O)N[C@@H](C)C(=O)NCC(=O)N[C@@H](CCSC)C(=O)N[C@@H](CCCNC(=N)N)C(=O)N[C@@H](Cc1ccccc1)C(=O)NCC(=O)N[C@@H](CCCNC(=N)N)C(=O)N2` [Compound 23, Peptide(SEQ ID NO: 105)-glutaric acid-Dex] (X3-GSGVPINVRCRGSRDCLDPCRRAGMRFGRCINSRCHCTP-OH; disulfide 10-30, 16-35, 20-37 (inferred); C-terminus assumed), in series [1] (PBS, release of free Dex, time points to 32 hr, read-out: Half-life (hours) as measured in the hydrolysis experiments (converted)), the half-life (commonly how long it takes for the measured level to halve) at 0.25 mg/mL is 6 h. The Hydrolysis half-life in series [1] (in PBS, free Dex) is reported as 6 h. In addition, in series [2] (Rat Plasma, release of free Dex, time points to 32 hr, read-out: Half-life (hours) as measured in the hydrolysis experiments (converted)), the half-life at 0.25 mg/mL was 1.9 h. The half-life at 0.25 mg/mL in series [2] (in rat plasma, free Dex, read-out: Hydrolysis half-life (converted)) is 1.9 h. Moreover, the “ankle swelling over time as compared to vehicle” value in series [3] (0.2 mg/kg and 0.5 mg/kg Dex equivalents IV days 11 and 12) was “reduction in ankle swelling”. In addition, in series [3] (0.2 mg/kg and 0.5 mg/kg dose), the spleen weight entry is listed as “reduction”, the thymus weight result is “reduction” and the total body weight entry is “reduction”. In series [3] (0.2 mg/kg dose), the “change in median ankle diameter between day 11 and day 13 as compared to vehicle” value is on record as “statistically significant reduction in ankle diameter”; the “difference from Dex in change in ankle diameter” value is reported as “no statistically significant difference”. The “reduction in thymus weight as compared to vehicle” value in series [3] (0.2 mg/kg dose groups) was “statistically significant”. The mortality and tolerability result in series [3] (1 mg/kg Dex equivalents IV, some rats) was “died overnight”. In addition, the half-life at 0.25 mg/mL in series [4] is 1.7 h.
